Test results: patent US9474783B2, “HIP/PAP protein and derivatives thereof for use in treating cancer” (priority 2012, dated 2016)

B1: ALF-5755 (protein, listed as Homo sapiens)
chain: MEEPQRELPSARIRCPKGSKAYGSHCYALFLSPKSWTDADLACQKRPSGNLVSVLSGAEGSFVSSLVKSIGNSYSYVWIGLHDPTQGTEPNGEGWEWSSSDVMNYFAWERNPSTISSPGHCASLSRSTAFLRWKDYNCNVRLPYVCKFTD

How the values were obtained:
[1] = system: PANC1 cells; assay: In vitro pancreatic cancer cell line growth (cell density, optical density); format: cell-based, Human
Procedure: (§1) The MCF7 (Human breast adenocarcinoma) and PANC1 (Human pancreatic carcinoma, epithelial-like cell line) cell lines were obtained from LGC-Promochem ATCC.
(§2) Sub-confluent cultures (70-80%) were split using Trypsin/EDTA and collected in serum free culture medium. Cell concentration was determined using Trypan blue staining and a Mallasez counting chamber.
(§3) Briefly, 1,000 cells per well were seeded in 96 well-plates. Cells were maintained in DMEM medium complemented with 1% antibiotics (P/S), and cultured in a humidified atmosphere at 37° C. and 5% CO2.
(§4) Cells were maintained in culture for 1 to 3 days (1 plate for each day of analysis). For control of cell survival/growth and validation of the experiments, equivalent cultures were performed in the presence of Foetal calf serum (5%).
(§5) The effect of increasing concentrations of ALF-5755 ranging from 0 to 2000 ng/ml was investigated over time up to 72 hours. Results for the optimal concentration (2000 ng/mL) only are presented below.
(§6) For each time point (24, 48, and 72 hours), 60 minutes prior to cell proliferation measurement, each plate received 10 μL of cell proliferation reagent per well.
(§7) The absorbance of the samples was measured against a background control using a 96-well plate reader at 450 nm with a reference wavelength of 690 nm.
(§8) Raw data are expressed as optical density.
(§9) Two-way ANOVA were performed to study ALF-5755 concentration incidence on cell growth and cell growth over time for each condition of culture (+/−ALF-5755 and +/−doxorubicin). Post-hoc Bonferroni were applied to reveal effects of ALF-5755 concentration at each time point, if any.

[2] = system: MCF7 cells; assay: In vitro mammary cancer cell line growth (cell density, optical density); format: cell-based, Human
Procedure: as §1, §2, §3, §4, §5, §6, §7, §8, §9

[3] = system: PyMT cells (primary mammary carcinoma); assay: In vivo model of primary mammary cancer (tumor weight, survival)
Procedure: PyMT (Polyoma middle T) cell line was derived from a primary mammary carcinoma induced by PyMT oncogene activation in FBV mice. Therefore, all experiments were performed in FBV mice, the syngenic corresponding strain.
PyMT mice were sacrificed at 12/13 weeks when presenting a large tumoral mass. The tumour was dissected and cells were dissociated mechanically in DMEM/Glutamax medium and then filtrated. Dead cells were eliminated by centrifugation then viable cells were frozen in aliquots. For tumour implantation in FBV mice, appropriate number of aliquots cells was thawn.
At day 1 of the experiment, female mice received 1 million of PyMT cells, within the 8th mammal in the adipose tissue. Cells were injected as a solution in PBS (0.05 ml total pre-warmed at 37° C.).
Alzet pumps were implanted in the back of the mice, at the time of PyMT cell injection (experiment 1) or after tumor implantation, when doxorubicin treatment started (experiment 2). The pumps continuously delivered either 43.2 μg of ALF-5755 or vehicle per day for a period of 28 days.
Animals started to receive doxorubicin at the time when tumor was detected (15 days after PyMT cells injection for both, ALF-5755 and Vehicle groups) by intra-tumor injection. Animals receive during four weeks, a weekly dose of 1 mg/kg that was known to induce tumor cell-death.
At the end of doxorubicin treatment (6 weeks after the beginning of the procedure), animals were sacrificed.
The weight of the tumors was compared between the two groups by mean of non-parametric one tailed Mann whitney test. Survival was compared by mean of one-tailed exact Fischer test.

[4] = system: DHDK12 cells (liver metastases of colorectal cancer); assay: In vivo model of liver metastases of colorectal cancer (tumor area after partial hepatectomy); design: species or system BDIX rat; conditions: 0.5 mg/kg single injection; for ratio of tumor liver area to total liver area: 14 days after treatment
Procedure: DHDK12 cell line was derived from liver metastatic cells developed by BDIX rats after 1,2-Dimethylhydrazine) intoxication (chemically-induced cancer). Therefore, all experiments were performed in BDIX rat, the syngenic corresponding strain.
Cells were expanded in vitro in a medium composed of 50% DMEM and 50% F12 (Invitrogen Gibco, Pailsey, GB) complemented with foetal calf serum (10%) and a combination of antibiotics (1% penicillin/streptomycin). Absence of mycoplasm contamination was controlled.
At day 1 of the experiment, rats were anesthetized with isofluran gas. After laparotomy they received 20 millions of DHDK12 cells.
At day seven after the injection of cancerous cells, when the tumor was already implanted, two types of hepatectomies were performed: either 30% or 70% of the liver was resected.
The control group was composed of animals receiving either the equivalent volume of vehicle or no injection.
Fourteen days after hepatectomy and treatment, animals were sacrificed. Serial sections of complete liver were performed for each animal (millimetric sections, the number of sections depending on the liver size and morphology). The tumor expansion was assessed by quantifying in square pixels (pixel^2) the area of each cancer cells nodule. The complete area of each section was also recorded and a ratio of the nodule/total area was calculated. Analyses were performed with Adobe Photoshop CS3 software.
Depending on the experiment, one-tailed t-test or two-tailed Mann-Whitney tests were performed to quantify the effect of ALF-5755 on nodule expansion. Area of nodules was expressed as a percentage of total liver area.

Molecule | EC50 ([1]; Homo sapiens, PANC-1, PANC1 cells at 72H) [µM] | reduction of the cell growth ([1]; doxorubicin 2.5 μM, effective at 48 hours post-plating, maintained at 72 hours) | EC50 ([2]; Homo sapiens, MCF7 cells at 24H) [µM] | reduction of the growth of MCF7 cancerous cells ([2]; doxorubicin 75 μM, 24 hours post-plating, maintained at 72 hours) | additional decrease of cell density in combination to doxorubicin ([1]; ALF-5755 2000 ng/mL + doxorubicin 2.5 μM versus doxorubicin alone, 24 hours post-plating) | deaths during the experiment ([3]; exp 1, ALF-5755 infusion with doxorubicin, n=3) | tumor weight at day 45 after implantation ([3]; exp 1, infusion 43.2 μg per day for 28 days from implantation, with weekly intra-tumor doxorubicin, control 1.1±0.2 g, P=0.059) [g] | deaths during the course of the experiment ([3]; exp 2, doxorubicin treated animals (1 mg/kg weekly intra-tumor for 4 weeks), same as group without doxorubicin) | deaths during the experiment, in total ([3]; exp 2, groups with and without doxorubicin pooled, n=14, placebo 6 of 14 died, P=0.008) | deaths during the course of the experiment ([3]; exp 2, infusion 43.2 μg per day for 28 days from tumor detection, group without doxorubicin, placebo 3 of 7 died) | maximum additional reduction in cell density in combination to doxorubicin ([2]; ALF-5755 2000 ng/mL + doxorubicin 75 μM versus doxorubicin alone, 72 hours) [%] | influence on the doxorubicin effect on cell density ([2]; ALF-5755 at any of the tested concentrations (0 to 2000 ng/ml) with doxorubicin 75 μM) | ratio of tumor liver area to total liver area ([4]; after 30% partial hepatectomy, control ratio 0.14) | decrease of tumor/total liver area ratio versus controls ([4]; after 30% partial hepatectomy, versus non-injected controls, p=0.022) | ratio of tumor liver area to total liver area ([4]; after 70% partial hepatectomy, control ratio 0.29) | decrease of tumor/total liver area ratio versus controls ([4]; after 70% partial hepatectomy, versus vehicle, p=0.0026)
COc1cccc2c1C(=O)c1c(O)c3c(c(O)c1C2=O)C[C@@](O)(C(=O)CO)C[C@@H]3O[C@H]1C[C@H](N)[C@H](O)[C@H](C)O1 [doxorubicin, reference compound] | 2.5 | about 50% | 75 | about 50% |  |  |  |  |  |  |  |  |  |  |  | 
B1 |  |  |  |  | up to 22% | no death observed | 0.63 ± 0.12 | exact same result | none | no death was observed | 33 | did not compromise the doxorubicin effect | 0.05 | about 60% | 0.15 | about 50%
